# System: TALEN-integrase (HIV IN deltaC) fusion pair targeting eGFP, 16 bp spacer
# Experiment: cell_activity
# Details: chloramphenicol-resistant colonies vs untargeted integrase; COS-7 plasmid integration assay
substance,measurement,value
"eGFP TALEN pair target, 16 bp spacer",activity,6 fold

# Source: US20240181084
